Positions count from the first letter of the chain named.
B1: R04 minibody (scFv-Fc) (Fc fusion)
chain: EIVMTQSPSSLSASVGDRVTITCQASQDISNYLNWCQQKPGKAPKLLIYDASNLETGVPSRFSGSGSGTGFTFTISSLQPEDFATYYCQQSYSTPYTFGQGTKVEIKSGGSTITSYNVNYTKLSSSGAQVQLQQSGPGLVKSSQTLSLTCAISGDSVSSNGAAWHWIRQSPSRGLEWLGRTYYRSGWYNDYAVSVKSRITINQDTSKNQFSLQLNSVTPEDTAVYFCAREGGGGRMDVWSQGTTVTVSS
B2: H01 minibody (scFv-Fc) (Fc fusion)
chain: QPGLTQPPSVSLAPGQTARITCGGNNIGSKSVHWYQQKPGQAPVLVVYDDSDRPSGIPERFSGSNAGNTATLTISRVEAGDEADYYCQVWDSRSDQYVFGTRTKLTVLSGGSTITSYNVYYTKLSSSGAQVTLKESGPVLVKPTETLTLTCTVSGFSLSNARMGVSWIRQPPGKALEWLAHIFSNGEKSYSTSLKSRLTISKDTSKSQVVLTMTNMDPVDTATYYCARTLDYYDSSGYLVGGAFDIWGQGTMVTVSS
B3: R04 IgG1 (antibody, V domains shown)
VH: QVQLQQSGPGLVKSSQTLSLTCAISGDSVSSNGAAWHWIRQSPSRGLEWLGRTYYRSGWYNDYAVSVKSRITINQDTSKNQFSLQLNSVTPEDTAVYFCAREGGGGRMDVWSQGTTVTVSS
VL: EIVMTQSPSSLSASVGDRVTITCQASQDISNYLNWCQQKPGKAPKLLIYDASNLETGVPSRFSGSGSGTGFTFTISSLQPEDFATYYCQQSYSTPYTFGQGTKVEIK
B4: B04 minibody (scFv-Fc) (Fc fusion)
chain: SYVLTQPPSVSVAPGKTARITCGGNNIGIRSVHWYQQKPGQAPVLVIYYDSDRPSGIPERFSGSKSGNTATLTISRVEAGDEADYYCQVWDSSSDHPVFGGGTKLTVLSGGSTITSYNVYYTKLSSSGTQVQLVESGAEVKKPGASVKVSCKASGYTFTRYYMHWVRQAPGQGLEWMGIINPSGGTTSYAQKFQGRVTMTRDTSTSTVYMELSSLRSEDTAVYYCARSFGELTSFDYWGQGTLVTVSS
B5: G07 minibody (scFv-Fc) (Fc fusion)
chain: QSVLIQPPSASGTPGQRVTISCSGSNSNFGSNSVSWYQQRPGTAPKLLIEGNNQRPSGVPERFSGSKSGTSASLAISGLQSEDEAEYSCASWDDSLNAFVFGPGTKLTVLSGGSAITSYNVYYTKLSSSGTQVQLVQSGAEVKKPGESLKISCKGSGYSFTSYWIGWVRQMPGKGLEWMGIIYPGDSDIRYSPSFQGQVTISADKSFSSAYLQWSSLKASDTAMYYCARLGATGAFDIWGQGTTVTVSS
B6: D10 human minibody (scFv-human Fc) (Fc fusion)
scFv-Fc: QSVVTQPPSASGSPGQTVTISCSGNSANIGGNPVNWYQQLPGTAPKLLIYSNNQRPSGVPDRFSGSKSGISASLAISGLQSEDEADYYCAAWDDSLNGVIFGGGTKLTVLSGGSTITSYNVYYTKLSSSGTQVQLVQSGAEVKKPGESLKISCKGSGYSFTSYWIGWVRQMPGKGLEWMGIIYPGDSDTRYSPSFQGQVTISADKSISTAYLQWSSLKASDTAMYYCARRHSGSYSGAFDIWGQGTMVTVSS
B7: D04 human minibody (scFv-human Fc) (Fc fusion)
scFv-Fc: SYVLTQPPSVSVAPGKTARITCGGNNIGWKSVHWYQQKPGQAPVLVVYNDNDRPSGVPERFSGSNSGNTATLTISRVVAGDEADYYCQVWDSSSDHVLFGGGTKLTVLSGGSTITSYNVYYTKLSSSGTQVQLVQSGAEVKKPGSSVKVSCKASGGTFSSYAISWVRQAPGQGLEWMGGIIPIFGTANYAQKFQGRVTITADESTSTAYMELSSLRSEDTAVYYCARASGRWLQFWHYYGMDVWGQGTTVTVS
B8: H01 human minibody (scFv-human Fc) (Fc fusion)
scFv-Fc: B2 chain
B9: D07 human minibody (scFv-human Fc) (Fc fusion)
scFv-Fc: B2 chain with Q1S, P2Y, G3E, L12V, Q16E, I20M, S29T, S31G
B10: B10 human minibody (scFv-human Fc) (Fc fusion)
scFv-Fc: QSVVTQPPSVSGAPGQRVTISCTGSSSNIGSRTVNWYQQLPGTAPKLLIYANNQRPSGVPDRFSGSKSGTSASLAISGLQSEDEADYYCAAWDDSLNGYVFGTGTKLTVLSGGSTITSYNVYYTKLSSSGTQVQLQQSGPGLVKPSQTLSLTCAISGDSVSSNSATWNWIRQSPSRGLEWLGRTYYGSKWHSDYAVSVKSRITINPDTSKNQISLHLNPVTPEDTAVYYCARGRSYAFDIWDQGTMVTVSS
B11: E08 human minibody (scFv-human Fc) (Fc fusion)
scFv-Fc: SYVLTQPPSVSVAPGKTARITCGGNNIGWKSVHWYQQKPGQAPVLVVYDDSDRPSGIPERFSGSNSGNTATLTISRVEAGDEADYYCQVWDSSSDLVVFGGGTKLTVLSGGSTITSYNVYYTKLSSSGTQVQLVQSGAEVKKPGSSVKVSCKASGGTFSSYAISWVRQAPGQGLEWMGGIIPIFGTANYAQKFQGRVTITADESTSTAYMELSSLRSEDTAVYYCARASGRWLQFWHYYGMDVWGQGTTVTVSS
B12: B04 human minibody (scFv-human Fc) (Fc fusion)
scFv-Fc: B4 chain
B13: H03 minibody (scFv-Fc) (Fc fusion)
chain: SYELTQPPSVSVAPGQTARITCGGNNIGSKSVHWYQQKPGQAPVLVIYYDSDRPSGIPERFSGSNSGNTATLTISRVEAGDEADYYCQVWDSSSALYVFGTRTKVTVLSGGSTITSYNVYYTKLSSSGTQVQLVESGGGLVQPGRSLRLSCAASGFTFDDYAMHWVRQAPGKGLEWVSGISWNSGSIGYADSVKGRFTISRDNAKNSLYLQVNSLRAEDTAVYYCARELIVGTTSPQTDAFDIWGQGTMVTVSS
B14: D04 minibody (scFv-Fc) (Fc fusion)
chain: B7 scFv-Fc
B15: R09 minibody (scFv-Fc) (Fc fusion)
chain: QPGLTQPPSVSVSPGQTASITCSGDKLGYKYVSWYQQKPGQSPVLVIYEDTKRPSGIPKRFSGSNSGNTATLTICGTQAVDEADYYCQAWDSSVVFGGGTKLTVLSGGSTITSYNVYDTKLSSSGTQVQLVQSGAEVKKPGASVKVSCKASGYTFTSYGISWVRQAPGQGLEWMGWISAYNGNTNYAQKFQGRVTMTTDTSTSTAYMELRSLRSDDTAVYYCARDMELRPPFDYWGQGTLVTVSS
B16: D11 minibody (scFv-Fc) (Fc fusion)
chain: SYELTQPPSVSVAPGQTARITCGGNNIGSKSVHWYQQKPGQAPVLVVYDDSDRPSGIPERFSGSNSGNTATLTISGTQAMDEADYYCQAWDSSTAYVFGSGTKLTVLSGGSTITSYNVYYTKLSSSGTQVQLEESGGGLVQPGGSLRLSCAASGFTFSNYAMSWVRQAPGKGLEWVSAISGSGGATFHADSVKGRFTISRDNSKNTLYLQMNSLRAEDTAVYYCARRVGYDSSGYYWSDAFDIWGQGTMVTVSS
B17: D07 minibody (scFv-Fc) (Fc fusion)
chain: B2 chain with Q1S, P2Y, G3E, L12V, Q16E, I20M, S29T, S31G
B18: B10 minibody (scFv-Fc) (Fc fusion)
chain: B10 scFv-Fc
B19: H02 minibody (scFv-Fc) (Fc fusion)
chain: QSVVTQPPSVSAAPGQKVTISCSGSSSNIGNNYVSWYQQLPGTAPKLLIYRDTQRPSGVPDRFSGSKSGTSASLAISGLRSEDEADYYCATWDKSLSGPVFGGGTKVTVLSGGSTITSYNVYYTKLSSSGTQVQLQQSGPGLVKPSQTLSLTCAISGDSVSSNSAAWNWIRQSPSRGLEWLGRTYYRSKWYNDYAVSVKSRIIINPDTSKNQFSLQLNSVTPEDTAVYYCARQDNNPYYGLDVWGQGTTVTVSS

The binders below were run against T1, SARS-CoV-2 spike protein receptor binding domain (RBD2) (SARS-CoV-2, UniProt P0DTC2 319-537) (assay: SPR).
With B1 the Kd was 0.128 µM. Work on B2 yielded a Kd of 0.281 µM. B3 was tested, and the Kd was 190 µM. Binder B4 has a Kd of 0.0568 µM. For B5, the Kd was 63.9 µM.

Each binder was assayed against SARS-CoV spike protein receptor binding domain (RBD1) (SARS-CoV, UniProt P59594 306-527) (assay: ELISA, crude human minibody).
B6: no binding. B7: no binding. B8: no binding. B9: no binding. B10: no binding. B11: binds. B12: no binding.

These binders were tested against T1, SARS-CoV-2 spike protein receptor … (assay: SPR, immobilized antibody, RBD injected, 1:1 fit).
For B1, the Kd was 0.128 µM. Binder B13 has a Kd of 0.117 µM. B14 gave a Kd of 0.123 µM. B15 was tested, and the Kd was 0.539 µM. For B16, the Kd was 0.798 µM. For B17, the Kd was 0.135 µM. With B2 the Kd was 0.281 µM. B18 showed a Kd of 0.344 µM. Binder B3 has a Kd of 190 µM. For B4, the Kd was 0.0568 µM. B19 gave a Kd of 0.0155 µM.

From US12018066 (TRIAD NATIONAL SECURITY, dated 2024)
